Experimental data published in patent US8927500.
Several values for one entry are separate records, joined by “and”; a condition that tells them apart may be missing. Identical values can stand only once.

Biological target: MDM2 (In-house, 41 kD) (UniProt Q00987)
Test: competitive fluorescence polarization, MDM2 with FAM-labeled linear peptide; graded scale of paragraph 458

MDM2 (In-house, 41 kD), sequence (Q00987 1-138 limits assumed): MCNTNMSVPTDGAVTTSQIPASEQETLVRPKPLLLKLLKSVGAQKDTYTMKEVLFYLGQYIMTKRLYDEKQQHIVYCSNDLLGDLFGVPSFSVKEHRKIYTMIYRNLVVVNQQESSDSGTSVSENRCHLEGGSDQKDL

| Substance | IC50 |
| --- | --- |
| peptidomimetic macrocycle SP754, Ac-tawya$r5f4CF3ek$r5lr-NH2 (peptide) | > 100 nM and < 1000 nM |
| peptidomimetic macrocycle SP755, Ac-tawyanf4CF3e$r5llr$r5a-NH2 (peptide) | < 10 nM |
| peptidomimetic macrocycle SP757, Ac-tawy$s8nf4CF3ekll$r5a-NH2 (peptide) | < 10 nM |
| peptidomimetic macrocycle SP758, Ac-tawya$s8f4CF3ekllr$r5a-NH2 (peptide) | > 10 nM and < 100 nM |

Other lines, results leading:

| IC50 | Substance |
| --- | --- |
| > 100 nM and < 1000 nM | peptidomimetic macrocycle SP752, Ac-t$r5wya$r5f4CF3ekllr-NH2 (peptide) |
| > 10 nM and < 100 nM | peptidomimetic macrocycle SP753, Ac-tawy$r5nf4CF3e$r5llr-NH2 (peptide) |
| > 10 nM and < 100 nM | peptidomimetic macrocycle SP756, Ac-t$s8wyanf4CF3e$r5llr-NH2 (peptide) |
